Measured values reported in patent US20240122981A1 (University of Pennsylvania, published 2024).

Key:
[1] = target: T1, CC chemokine receptor 4 (CCR4) (human, UniProt P51679 1-360); assay: flow cytometry on HH cells transduced with the CAR; reduced staining by the parent mAb
T1 construct: whole, on cells; No recombinant CCR4 was used; also called CD194
T1 sequence (looked up): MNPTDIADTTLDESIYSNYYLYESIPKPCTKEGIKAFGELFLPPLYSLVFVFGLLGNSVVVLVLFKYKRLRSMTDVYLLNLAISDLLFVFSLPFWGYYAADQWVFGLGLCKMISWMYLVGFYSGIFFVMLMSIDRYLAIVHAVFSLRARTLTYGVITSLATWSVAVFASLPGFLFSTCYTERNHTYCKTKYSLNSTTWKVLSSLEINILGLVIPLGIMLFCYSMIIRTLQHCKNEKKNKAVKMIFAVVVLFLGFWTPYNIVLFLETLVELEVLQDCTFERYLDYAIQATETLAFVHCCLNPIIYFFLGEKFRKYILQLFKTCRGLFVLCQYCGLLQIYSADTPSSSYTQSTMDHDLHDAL

[2] = target: T1, CC chemokine receptor 4 (CCR4); assay: flow cytometry on HH cells transduced with the CAR; loss of staining by the parent mAb
[3] = target: T1, CC chemokine receptor 4 (CCR4); assay: flow cytometry on HH cells, KW-0761 conjugated to Ax680
Description: CCR4 was analyzed by FCM.
Dead cells were gated out by staining with violet amine-reactive viability dye, LIVE-DEAD violet (Invitrogen). Intracellular staining was performed using the Foxp3/Transcription Factor Staining Kit (Affymetrix) per the manufacturer's instructions. CCR4-CAR and CD19-CAR expression were detected by biotinylated antihuman Fab antibody and anti-mouse Fab antibody (Jackson ImmunoResearch), respectively. […] Data were collected either by a Fortessa LSRII or LSR II cytometer (BD Biosciences) and analyzed using FlowJo version 10 software (Tree Star).

B1: CCR4(KW_L2H)-CAR (other)
chain: GSDVLMTQSPLSLPVTPGEPASISCRSSRNIVHINGDTYLEWYLQKPGQSPQLLIYKVSNRFSGVPDRFSGSGSGTDFTLKISRVEAEDVGVYYCFQGSLLPWTFGQGTKVEIKGGGGSGGGGSGGGGSGGGGSEVQLVESGGDLVQPGRSLRLSCAASGFIFSNYGMSWVRQAPGKGLEWVATISSASTYSYYPDSVKGRFTISRDNAKNSLYLQMNSLRVEDTALYYCGRHSDGNFAFGYWGQGTLVTVSSSGTTTPAPRPPTPAPTIASQPLSLRPEACRPAAGGAVHTRGLDFACDIYIWAPLAGTCGVLLLSLVITLYCKRGRKKLLYIFKQPFMRPVQTTQEEDGCSCRFPEEEEGGCELRVKFSRSADAPAYKQGQNQLYNELNLGRREEYDVLDKRRGRDPEMGGKPRRKNPQEGLYNELQKDKMAEAYSEIGMKGERRRGKGHDGLYQGLSTATKDTYDALHMQALPPR
notes: Chimeric antigen receptor on the surface of transduced HH cells or primary T cells
[1]
  binding result: binds

B2: CCR4(h1567_L2H)-CAR (other)
chain: DIVMTQSPDSLAVSLGERATINCKSSQSILYSSNQKNYLAWYQQKPGQSPKLLIYWASTRESGVPDRFSGSGSGTDFTLTISSLQAEDVAVYYCHQYLSSYTFGQGTKLEIKGGGGSGGGGSGGGGSGGGGSQVQLVQSGAEVKKPGASVKVSCKASGYTFASYYMHWMRQAPGQGLEWIGWINPGNVNTKYNEKFKGRATLTVDTSTNTAYMELSSLRSEDTAVYYCARSTYYRPLDYWGQGTLVTVSS
notes: Chimeric antigen receptor on the surface of transduced HH cells or primary T cells; also called CCR4-CAR(h1567_L2H); not shown: second-generation CAR backbone (CD8 hinge and transmembrane, 4-1BB, CD3 zeta); the fu
[2]
  binding result: binds

B3: anti-CCR4 monoclonal antibody clone KW-0761 (mogamulizumab) (antibody, V domains shown)
VH: EVQLVESGGDLVQPGRSLRLSCAASGFIFSNYGMSWVRQAPGKGLEWVATISSASTYSYYPDSVKGRFTISRDNAKNSLYLQMNSLRVEDTALYYCGRHSDGNFAFGYWGQGTLVTVSS
VL: DVLMTQSPLSLPVTPGEPASISCRSSRNIVHINGDTYLEWYLQKPGQSPQLLIYKVSNRFSGVPDRFSGSGSGTDFTLKISRVEAEDVGVYYCFQGSLLPWTFGQGTKVEIK
notes: also called anti-CCR4 clone KW monoclonal antibody
[3]
  binding result: binds
